Like-named read-outs stand apart in the source and are kept apart here.
Experiments:
A24_A*24:02 [1] = biological target: T1, A24_A*24:02 (human, UniProt A*24:02); assay: LABScreen beads
T1 construct: on LABScreen bead; also called HLA-A*24:02 (LABScreen class I bead)
T1 heavy chain: not shown

CW6W32 (rhHLA-Cw6/TRAT) [2] = biological target: T2, CW6W32 (rhHLA-Cw6/TRAT) (human); assay: SPR ProteOn XPR36, captured mAb
T2 construct: also called CW6W32.009; rHLA-Cw6/TRAT
Method: (§1) Anti-HLA-Cw6 mAbs were captured at ligand densities ranging from 100 to 200 response units. […] All analyses were conducted in PBST at 100 μL/min flow rate with association and dissociation times of 180 and 900 seconds, respectively. […] Analyte raw data was double referenced by subtraction of the blank surface response at “interspots” (to correct for refractive index changes and any non-specific interactions with the chip surface) and of the buffer blank response (to correct for any baseline drift resulting from mAb dissociation over time). Referenced data were globally fit to a 1:1 simple Langmuir binding model. Kinetic parameters were calculated for each mAb/antigen combination or interaction using Bio-Rad ProteOn Manager software (version 3.1.0.6) with parameter (kon, koff, Rmax) scope and type set to “Grouped” and “Fitted,” respectively.

[3] = biological target: T3, CW6W36 (rhHLA-Cw6/ADAMTSL5) (human); assay: SPR ProteOn XPR36, captured mAb
T3 construct: also called CW6W36.002; rHLA-Cw6/ADAMTSL5
Method: as §1

[4] = biological target: T4, CW6W3.ECO.PP.002/.003 (rhHLA-Cw6/ARF) (human); assay: SPR ProteOn XPR36, captured mAb; valid kinetic fit;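 for Kd: Anti-HLA-Cw6 mAbs captured at 100–200 RU, antigen flowed in PBST, 180 s association and 900 s dissociation, double-referenced sensorgrams globally fit to a 1:1 Langmuir model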;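 for koff: Anti-HLA-Cw6 mAbs captured at 100–200 RU, antigen flowed in PBST, 180 s association and 900 s dissociation, double-referenced sensorgrams globally fit to a 1:1 Langmuir model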
T4 construct: also called rhHLA-Cw6/ARFN; rHLA-Cw6/ARFN
Method: as §1

A24_A*24:02 [5] = biological target: T1, A24_A*24:02; assay: LABScreen beads
[6] = biological target: T4, CW6W3.ECO.PP.002/.003 (rhHLA-Cw6/ARF); assay: SPR ProteOn XPR36, captured mAb
Method: as §1

[7] = biological target: T3, CW6W36 (rhHLA-Cw6/ADAMTSL5); assay: SPR Biacore 8K, captured mAb; Acceptable fit
From the text: To further characterize the ability of the antibodies to differentiate between class I MHC molecules.

CW6W32 (rhHLA-Cw6/TRAT) [8] = biological target: T2, CW6W32 (rhHLA-Cw6/TRAT); assay: SPR ProteOn XPR36, captured mAb; valid kinetic fit;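 for Kd: Anti-HLA-Cw6 mAbs captured at 100–200 RU, antigen flowed in PBST, 180 s association and 900 s dissociation, double-referenced sensorgrams globally fit to a 1:1 Langmuir model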;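 for koff: Anti-HLA-Cw6 mAbs captured at 100–200 RU, antigen flowed in PBST, 180 s association and 900 s dissociation, double-referenced sensorgrams globally fit to a 1:1 Langmuir model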
Method: as §1

CW6W32 (rhHLA-Cw6/TRAT) [9] = biological target: T2, CW6W32 (rhHLA-Cw6/TRAT); assay: SPR Biacore 8K, captured mAb; Kinetic fit not valid
CW6W35.001 = assay: as above
CW6W51.001 = assay: as above
CW6W53.001 = assay: as above
CW6W54.001 = assay: as above
[10] = biological target: T3, CW6W36 (rhHLA-Cw6/ADAMTSL5); assay: SPR ProteOn XPR36, captured mAb; valid kinetic fit, range of two replicates
Method: as §1

[11] = biological target: T3, CW6W36 (rhHLA-Cw6/ADAMTSL5); assay: SPR ProteOn XPR36, captured mAb; valid kinetic fit, range of two replicates (second end)
Method: as §1

B1: CW6B188 (antibody, V domains shown)
VH: EVQLVESGGGLVQPGGSLRLSCAASGFTFTNYWMTWVRQAPGKGLEWVANIKQSGNEKYYVDSVKGRFTISRDNAKNSLYLQMNSLRAEDTAVYYCARTLYEWELEPFDYWGQGTLVTVSS
VL: SYVLTQPPSVSVAPGQTARITCGGNRIGSKNLHWYQQKPGQAPVLVVYDDSDRPSGIPERFSGSNSGSTATLTISRVEAGDEADYYCQVWDSSRDHVVFGGGTKLTVL
notes: also called CW6B188.001; CW6M188 (DNA ID)
- binding result (A24_A*24:02 [1]): no binding (tested: 10 µg/ml)
- binding result (CW6W32 (rhHLA-Cw6/TRAT) [2]): binds
- binding result [3]: binds
- Kd [4]: 120 pM
- koff [4]: 0.000574 s⁻¹
- kon [4]: 5.66e+06 M⁻¹ s⁻¹

B2: CW6B130 (antibody, V domains shown)
VH: QLQLQESGPGLVKPSETLSLTCTVSGASISSINYYWGWIRQPPGKGLEWIGSFYYSGNTYYNPSLKSRVTISVDTSKNYFSLKLNSVTAADTAVYYCAREYYDSSGYYPFEPWGQGTLVTVSS
VL: SYVLTQPPSVSVAPGQTARITCGGDNIGSESVHWYQQKPGQAPVLVVYDDTDRPSGIPERFSGSKSGTTATLTISWVEAGDEADYYCQVWDSSSDHVVFGGGTKLTVL
notes: also called CW6B130.001; CW6M130 (DNA ID)
- binding result (A24_A*24:02 [5]): no binding (tested: 10 µg/ml)
- binding result [6]: binds
- Kd [7]: 272 pM
- koff [7]: 0.00184 s⁻¹
- kon [7]: 6.77e+06 M⁻¹ s⁻¹
- Kd (CW6W32 (rhHLA-Cw6/TRAT) [8]): 270 pM
- koff (CW6W32 (rhHLA-Cw6/TRAT) [8]): 0.00272 s⁻¹
- kon (CW6W32 (rhHLA-Cw6/TRAT) [8]): 1.03e+07 M⁻¹ s⁻¹
- Kd (CW6W32 (rhHLA-Cw6/TRAT) [9]): 622 pM
- koff (CW6W32 (rhHLA-Cw6/TRAT) [9]): 0.00509 s⁻¹
- kon (CW6W32 (rhHLA-Cw6/TRAT) [9]): 8.2e+06 M⁻¹ s⁻¹
- Kd (CW6W35.001): 6040 pM
- koff (CW6W35.001): 0.0101 s⁻¹
- kon (CW6W35.001): 1.67e+06 M⁻¹ s⁻¹
- Kd (CW6W51.001): 571 pM
- koff (CW6W51.001): 0.000389 s⁻¹
- kon (CW6W51.001): 681000 M⁻¹ s⁻¹
- Kd (CW6W53.001): 205 pM
- koff (CW6W53.001): 0.0054 s⁻¹
- kon (CW6W53.001): 2.63e+07 M⁻¹ s⁻¹
- Kd (CW6W54.001): 82.8 pM
- koff (CW6W54.001): 0.00204 s⁻¹
- kon (CW6W54.001): 2.47e+07 M⁻¹ s⁻¹
- Kd [10]: 58.6 pM
- koff [10]: 0.00124 s⁻¹
- kon [10]: 1.66e+07 M⁻¹ s⁻¹
- Kd [11]: 71.3 pM
- koff [11]: 0.00097 s⁻¹
- kon [11]: 1.75e+07 M⁻¹ s⁻¹

From patent publication US20200317791A1 (Janssen / Centocor, published 2020)
